Laboratory results as given in PMC6591006, “Broad and Potent Neutralizing Antibodies Recognize the Silent Face of the HIV Envelope” (Immunity, 2019).
Where a chain is given by its changes, count along the chain named.

B1: Monoclonal anti-HIV-1 Env SF12 (IgG) (antibody, V domains shown)
VH: QVQLQESGPGLVKPSETLSVTCRVSGGSLDLYYWSWIRQPPGKGLQWIGFVYFDGSYGDYDPSLRSRVTISADMSKNQISLRLKSVTPADTAVYYCARLGPGGIFDRWTGHYGDKWLDPWGQGTLVTVSS
VL: QIDLTQSPRTLSLSAGERATLLCRASQSVSNVALAWYQHKPGQAPRLLLHEASTRATGIPDRFIGSGSGRDFTLTITSLEPEDFAVYYCQLSGRRLGQGTKVEIK
B2: Monoclonal anti-HIV-1 Env SF5 (IgG) (antibody, V domains shown)
VH: B1 VH with L31R, K43E, F50H, S71T, N77Y, S80I, K84R
VL: B1 VL with D3V, T54I, T57A, I64V, E80H, Q98P

Assays:
[1] = target: T1, YU2 gp140 foldon trimer (wild type) (HIV-1 group M subtype B isolate YU-2, UniProt P35961, stabilised); test: ELISA; YU2 gp120/gp140 proteins coated on the plate at 2 μg/ml; IgG in a 1:3 dilution series from 4 or 10 μg/ml, 1 h at room temperature or 37°C, in 1% BSA in PBS; detected with anti-human IgG; conditions: both partners purified
T1 construct: also called uncleaved YU2 gp140 foldon trimer; YU2 gp140 WT; source: 293-6E, transiently transfected, purified (Ni-NTA)

[2] = target: T2, YU2 gp120 monomer (wild type) (HIV-1 group M subtype B isolate YU-2, UniProt P35961); test: as above; conditions: both partners purified
T2 construct: also called monomeric YU2 gp120; YU2 gp120 WT; source: 293-6E, transiently transfected, purified (Ni-NTA)

Binder	binding result [1]	binding result [2]
B1	binds	binds
B2	binds	binds
